± gives the standard deviation of the averaged measurements.
Test system: ATP
Test: switch fluorescence ratio, 500 uM ATP over buffer (Cy3 cluster intensity, sum of 5 cycles each) (fold (ratio)); higher = stronger signal-on switching upon ATP binding; sequences stand for … in TCGTCGGCAGCGTCAGATGTGTATAAGAGACAGTTTTTTTTTTTTTTTTTTTTTTTTT…TC
Details: aptamer strand: ATP DNA aptamer (quencher-CACCTGGGGGAGTATTGCGGAGGAAGG + anchor), 100 nM annealed; ATP concentration: 500 uM
Procedure, shortened: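 Switching-strand clusters labelled with Cy3 on a modified Illumina MiSeq flow-cell were annealed to 100 nM quencher-labelled ATP aptamer, imaged in selection buffer, and re-imaged after 15 min with 500 uM ATP at 22 °C. This was done over five cycles with NaOH stripping and re-annealing in between. The fluorescence ratio is summed target-cycle over summed buffer-cycle Cy3 intensity per cluster, averaged per switch-domain sequence, excluding clusters outside 100-1000 RFU.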
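Also: ATP exposure 15 min at 22 °C before imaging.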

Sequence | switch fluorescence ratio
TAAATAAATT | 1.01 ± 0.044
TAAATAAGTT | 1.004 ± 0.0097
TAAATACTCG | 1.25 ± 0.044
TAAATCCTTT | 1 ± 0.053
TAAATCGGCA | 1.004 ± 0.0021
TAAATCGGCG | 0.989 ± 0.023
TAAATGACTA | 0.987 ± 0.018
TAAATGGGTG | 1.03 ± 0.028
TAAATGTCTG | 0.995 ± 0.015
TAAATTAATC | 1.01 ± 0.018
TAAATTAGGG | 0.992 ± 0.033
TAAATTGGTA | 1.04 ± 0.016
TAACAAATAG | 0.9741 ± 0.0062
TAACAAGGGT | 1 ± 0.016
TAACACTCCT | 1.1 ± 0.02
TAACAGAAGA | 0.991 ± 0.017
TAACAGGGGG | 0.995 ± 0.017
TAACAGGTTT | 0.989 ± 0.016
TAACAGTGTG | 1.04 ± 0.046
TAACATCTGT | 0.975 ± 0.021
TAACCGCTTT | 1.55 ± 0.7
TAACGAGATT | 1.02 ± 0.026
TAACGCATG | 1.13 ± 0.082

Sequence | switch fluorescence ratio
TAACGCTTTT | 1.002 ± 0.0065
TAACGGAGGG | 0.993 ± 0.04
TAACGGGATG | 1 ± 0.017
TAACGTGTTT | 1 ± 0.017
TAACTAGGAG | 1.12 ± 0.16
TAACTATGTA | 1.02 ± 0.034
TAACTGTGGA | 1.08 ± 0.085
TAACTTACAT | 1.19 ± 0.018
TAACTTGCTC | 1.05 ± 0.054
TAACTTTGGC | 0.9536 ± 0.0091
TAAGAAATGG | 1.02 ± 0.079
TAAGAAGTTA | 1.02 ± 0.03
TAAGAATCGC | 1.15 ± 0.2
TAAGAATGTT | 0.977 ± 0.0098
TAAGAGCTGA | 0.985 ± 0.023
TAAGAGGCAC | 0.996 ± 0.052
TAAGAGGGCT | 0.996 ± 0.022
TAAGAGGGGT | 1.03 ± 0.07
TAAGAGTACT | 1.008 ± 0.0019
TAAGAGTGCA | 0.973 ± 0.027
TAAGATCTTA | 0.997 ± 0.015
TAAGATGTAG | 0.9957 ± 0.0011
TAAGATGTTG | 1.01 ± 0.019

Sequence | switch fluorescence ratio
TAAGATTACA | 1.017 ± 0.006
TAAGATTGTT | 1.02 ± 0.017
TAAGCAGGTT | 0.995 ± 0.017
TAAGCATAAG | 1.01 ± 0.027
TAAGCCGCCT | 0.998 ± 0.016
TAAGCCTTTT | 1.038 ± 0.0024
TAAGCGCGGC | 1.055 ± 0.0079
TAAGCGGGG | 1.002 ± 0.0026
TAAGCGGGGA | 1.027 ± 0.0054
TAAGCGTCTG | 1.013 ± 0.0057
TAAGCTATTT | 1.02 ± 0.025
TAAGCTGCGT | 0.989 ± 0.03
TAAGCTTACA | 1.04 ± 0.032
TAAGCTTTGT | 0.9902 ± 0.0025
TAAGGAATGC | 1.54 ± 0.035
TAAGGAATTG | 1.01 ± 0.045
TAAGGACGGG | 1.02 ± 0.03
TAAGGAGGTG | 1.033 ± 0.008
TAAGGAGTTT | 0.972 ± 0.016
TAAGGCAC | 1.04 ± 0.017
TAAGGCGGAG | 0.9951 ± 0.0032
TAAGGCGGGG | 0.993 ± 0.042
TAAGGCTACC | 1.048 ± 0.004

Sequence | switch fluorescence ratio
TAAGGCTGC | 1.04 ± 0.076
TAAGGGCAGA | 1.02 ± 0.045
TAAGGGGAAA | 0.979 ± 0.026
TAAGGGGGAA | 1.03 ± 0.06
TAAGGGGGCC | 1.08 ± 0.16
TAAGGGGGCT | 1.01 ± 0.034
TAAGGGGTCC | 0.979 ± 0.013
TAAGGGGTTC | 0.982 ± 0.022
TAAGGGGTTT | 1.03 ± 0.058
TAAGGGTAAT | 0.973 ± 0.046
TAAGGGTGCA | 0.994 ± 0.064
TAAGGGTTTT | 1 ± 0.036
TAAGGTCGAT | 1.01 ± 0.022
TAAGGTGGTA | 1.02 ± 0.014
TAAGGTTTTG | 1.01 ± 0.022
TAAGGTTTTT | 1.03 ± 0.063
TAAGTATGTT | 1.002 ± 0.0031
TAAGTGAGAA | 0.983 ± 0.038
TAAGTGAGGG | 0.981 ± 0.018
TAAGTGAGGT | 0.99677 ± 0.00077
TAAGTGATG | 1 ± 0.034
TAAGTGCTGG | 1.01 ± 0.016
TAAGTGGGCC | 1 ± 0.036

Sequence | switch fluorescence ratio
TAAGTGGTCG | 1.03 ± 0.036
TAAGTTAGTC | 1.02 ± 0.012
TAAGTTATAT | 0.985 ± 0.015
TAAGTTATGG | 0.997 ± 0.02
TAAGTTGATC | 0.989 ± 0.053
TAAGTTGGTA | 0.9521 ± 0.0054
TAAGTTGGTG | 0.976 ± 0.018
TAAGTTTTAG | 1.07 ± 0.081
TAATAAAATT | 1.04 ± 0.083
TAATAAATGT | 0.9941 ± 0.0044
TAATAAGGCT | 0.9935 ± 0.0076
TAATAATCTA | 1.01 ± 0.027
TAATAATTCT | 0.99 ± 0.019
TAATACCAAG | 1 ± 0.029
TAATACTATG | 1.05 ± 0.074
TAATACTTAT | 0.994 ± 0.033
TAATAGGCCT | 1.026 ± 0.01
TAATAGGTTG | 0.97 ± 0.012
TAATAGTTCC | 1.106 ± 0.0025
TAATAGTTT | 1.04 ± 0.033
TAATATATTT | 1.01 ± 0.028
TAATATTTAA | 1.05 ± 0.009
TAATCACAAT | 1.032 ± 0.0044

Sequence | switch fluorescence ratio
TAATCACGAA | 1.036 ± 0.0039
TAATCGATAT | 0.9803 ± 0.0026
TAATCGCCAA | 1.05 ± 0.0039
TAATCGCCTG | 0.981 ± 0.034
TAATCGCTAA | 1.13 ± 0.14
TAATCGGGGT | 0.978 ± 0.038
TAATGACGCT | 0.997 ± 0.027
TAATGAGGGA | 1 ± 0.038
TAATGCAGGA | 1.02 ± 0.015
TAATGGAGGG | 0.965 ± 0.047
TAATGGGAAA | 1.04 ± 0.013
TAATGGGACG | 1.08 ± 0.14
TAATGGGGAC | 0.967 ± 0.03
TAATGGGGAG | 0.993 ± 0.014
TAATGGTATG | 0.982 ± 0.039
TAATGGTATT | 0.97547 ± 0.00097
TAATGGTTGC | 0.996 ± 0.014
TAATGGTTTT | 1.02 ± 0.025
TAATGTAACG | 1 ± 0.063
TAATGTAATG | 0.999 ± 0.031
TAATGTGGTA | 0.979 ± 0.056
TAATGTTTGC | 1.01 ± 0.033
TAATTAAATA | 1.04 ± 0.038

Sequence | switch fluorescence ratio
TAATTAAGGA | 1.004 ± 0.0096
TAATTAATAG | 0.9971 ± 0.0031
TAATTAATGC | 1.02 ± 0.037
TAATTAGGGG | 1.06 ± 0.083
TAATTATAGC | 1.05 ± 0.049
TAATTATAGT | 1.01 ± 0.011
TAATTCCCGT | 1.01 ± 0.036
TAATTCGAG | 1.04 ± 0.029
TAATTCGGAT | 2.07 ± 1.8
TAATTCGTTA | 0.992 ± 0.037
TAATTGAGGC | 1.04 ± 0.017
TAATTGCGGT | 1.007 ± 0.0045
TAATTGGAGA | 0.989 ± 0.014
TAATTGGGTT | 1 ± 0.019
TAATTGT | 0.976 ± 0.03
TAATTGTTAT | 0.986 ± 0.024
TAATTTAAGA | 1.01 ± 0.013
TAATTTAATA | 1.02 ± 0.011
TAATTTAGTG | 0.9858 ± 0.0056
